Like-named read-outs stand apart in the source and are kept apart here.

The target of experiment [1] is T1, cytochrome P-450aluC09 (P450 AluC09) from Amycolatopsis lurida NRRL 2430 (Amycolatopsis lurida NRRL 2430).
T1 sequence: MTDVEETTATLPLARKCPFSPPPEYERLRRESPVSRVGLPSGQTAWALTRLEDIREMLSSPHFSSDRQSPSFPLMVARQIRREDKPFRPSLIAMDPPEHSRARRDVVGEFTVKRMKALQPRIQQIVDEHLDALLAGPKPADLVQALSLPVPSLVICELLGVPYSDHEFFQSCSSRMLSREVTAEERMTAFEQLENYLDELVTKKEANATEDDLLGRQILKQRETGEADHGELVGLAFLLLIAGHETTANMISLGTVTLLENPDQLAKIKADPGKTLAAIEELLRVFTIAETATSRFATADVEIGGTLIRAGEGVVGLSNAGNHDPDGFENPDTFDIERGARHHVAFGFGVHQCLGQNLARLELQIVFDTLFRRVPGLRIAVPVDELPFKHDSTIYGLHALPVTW
Description: cell-based or functional assay.

Experiment [2] has the same target. Briefly: cell-based or functional assay. The source holds these as a separate data set.

B1: ferredoxin Fd1 from Streptomyces griseus 11796 (protein)
chain: TMRVSADRTVCVGAGLCALTAPGVFDQDDDGIVTVLTAEPAADDDRRTAREAGHLCPSGAVRVVEDTE
With B1, in experiment [1], the % yield of parent-derived products, 4'-HO-diclofenac 310 m/z (whole cell biocatalysis) was 11.5%; the % yield of parent-derived products, 5-HO-diclofenac 310 m/z (whole cell biocatalysis) was 4.2%; the % yield of parent-derived products, HO-bosentan 568 m/z (whole cell biocatalysis) amounted to 6.3%.

B2: ferredoxin CamB from Pseudomonas putida ATCC 17453 (protein)
chain: SKVVYVSHDGTRRELDVADGVSLMQAAVSNGIYDIVGDCGGSASCATCHVYVNEAFTDKVPAANEREIGMLECVTAELKPNSRLCCQIIMTPELDGIVVDVPDRQW
On to B2, for which the % yield of parent-derived products, HO-bosentan 568 m/z (whole cell biocatalysis) in experiment [2] is 21.2%.

B3: ferredoxin AluF03 from Amycolatopsis lurida NRRL 2430 (protein)
chain: MKIIADTGKCVGAGQCVLTDPDLFDQSEDDGTVLVLNAEPEGEEAEENARTAVHICPGQALSLA
On to B3, for which, in experiment [1], the % yield of parent-derived products, 4'-HO-diclofenac 310 m/z (whole cell biocatalysis) was found to be 60.3%; the % yield of parent-derived products, 5-HO-diclofenac 310 m/z (whole cell biocatalysis) is 23.8%; the % yield of parent-derived products, HO-bosentan 568 m/z (whole cell biocatalysis) was found to be 52.6%. In experiment [2], the % yield of parent-derived products, HO-bosentan 568 m/z (whole cell biocatalysis) was 27.4%.

Source of the values: patent US20190367957A1.
